# Test results published in publication PMC10899660, “Global fungal-host interactome mapping identifies host targets of candidalysin” (Nature Communications, 2024).
# Biological target: Recombinant Cyclin H (CCNH) protein with a C-HIS tag (human) (UniProt P51946)
# Test: SPR; Biacore T200, 25 °C, 30 μL/min, HBS-EP running buffer; CCNH amine-coupled on a CM5 chip (1200 RU); candidalysin in 1:1 serial dilution, multicycle, association 120 s, dissociation 150 s
# Chain of candidalysin (Ece1-III), synthetic peptide (Q07730 62-92 limits assumed): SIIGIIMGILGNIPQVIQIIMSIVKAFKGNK
# Chain of Recombinant Cyclin H (CCNH) protein with a C-HIS tag (human) (P51946 whole entry): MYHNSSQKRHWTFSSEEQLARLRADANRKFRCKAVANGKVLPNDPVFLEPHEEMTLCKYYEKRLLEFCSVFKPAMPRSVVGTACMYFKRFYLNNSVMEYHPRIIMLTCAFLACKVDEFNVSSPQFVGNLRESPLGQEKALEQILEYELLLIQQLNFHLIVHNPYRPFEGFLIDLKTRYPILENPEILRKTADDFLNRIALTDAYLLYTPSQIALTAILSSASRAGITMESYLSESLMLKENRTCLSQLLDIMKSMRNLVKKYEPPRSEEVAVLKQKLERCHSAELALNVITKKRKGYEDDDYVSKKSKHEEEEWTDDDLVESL
substance,measurement,value
"candidalysin (Ece1-III), synthetic peptide",Kd,17.2 nM
same,koff,0.00171 s⁻¹
same,kon,99200 M⁻¹ s⁻¹
